From the supplement of paper PMC10567573

B1: LPCAT4 (parent)
chain: HDPLYGKLFSTYLRPPHTSRGTSQ
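Further: lentivirally expressed fusions sorted by FACS into six bins by GFP to DsRed ratio, PSI derived from sequencing read proportions per bin multiplied by bin number.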

Variants of: B1
Test: protein stability index of a GFP-peptide fusion (GPS, HEK-293T) (PSI 1-6); higher = more stable
Details: c terminus: a fixed tail appended
For HDPLYGKNFSTYLRPPHTSRGTSQ [L8N], the protein stability index was 4.19.
HDPLYGKYFSTYLRPPHTSRGTSQ [L8Y] showed a protein stability index of 2.58.
HDPLYGKKFSTYLRPPHTSRGTSQ [L8K] showed a protein stability index of 3.91.
HDPLYGKFFSTYLRPPHTSRGTSQ [L8F] gave a protein stability index of 2.15.
With HDPLYGKQFSTYLRPPHTSRGTSQ [L8Q] the protein stability index was 4.58.
HDPLYGKPFSTYLRPPHTSRGTSQ [L8P] gave a protein stability index of 4.26.
HDPLYGKIFSTYLRPPHTSRGTSQ [L8I] gave a protein stability index of 3.25.
With HDPLYGKWFSTYLRPPHTSRGTSQ [L8W] the protein stability index was 2.37.
Work on HDPLYGKDFSTYLRPPHTSRGTSQ [L8D] yielded a protein stability index of 4.88.
For HDPLYGKHFSTYLRPPHTSRGTSQ [L8H], the protein stability index was 4.44.
For HDPLYGKMFSTYLRPPHTSRGTSQ [L8M], the protein stability index was 3.73.
HDPLYGKVFSTYLRPPHTSRGTSQ [L8V] showed a protein stability index of 3.62.
For HDPLYGKCFSTYLRPPHTSRGTSQ [L8C], the protein stability index was 4.01.
With HDPLYGKGFSTYLRPPHTSRGTSQ [L8G] the protein stability index was 4.66.
Variant HDPLYGKEFSTYLRPPHTSRGTSQ [L8E] has a protein stability index of 4.85.
Work on HDPLYGKSFSTYLRPPHTSRGTSQ [L8S] yielded a protein stability index of 4.68.
HDPLYGKTFSTYLRPPHTSRGTSQ [L8T] showed a protein stability index of 4.31.
HDPLYGKRFSTYLRPPHTSRGTSQ [L8R] showed a protein stability index of 4.27.
HDPLYGKAFSTYLRPPHTSRGTSQ [L8A] gave a protein stability index of 4.59.
In the case of HDPLYGKLFSTYLQPPHTSRGTSQ [R14Q], the protein stability index is reported as 2.83.
In the case of HDPLYGKLFSTYLWPPHTSRGTSQ [R14W], the protein stability index is reported as 2.52.
With HDPLYGKLFSTYLYPPHTSRGTSQ [R14Y] the protein stability index was 2.81.
For HDPLYGKLFSTYLNPPHTSRGTSQ [R14N], the protein stability index was 3.04.
For HDPLYGKLFSTYLEPPHTSRGTSQ [R14E], the protein stability index was 3.4.
HDPLYGKLFSTYLSPPHTSRGTSQ [R14S] showed a protein stability index of 2.69.
HDPLYGKLFSTYLTPPHTSRGTSQ [R14T] gave a protein stability index of 3.09.
HDPLYGKLFSTYLVPPHTSRGTSQ [R14V] showed a protein stability index of 3.17.
With HDPLYGKLFSTYLFPPHTSRGTSQ [R14F] the protein stability index was 2.81.
HDPLYGKLFSTYLMPPHTSRGTSQ [R14M] gave a protein stability index of 2.79.
For HDPLYGKLFSTYLIPPHTSRGTSQ [R14I], the protein stability index was 3.17.
HDPLYGKLFSTYLPPPHTSRGTSQ [R14P] showed a protein stability index of 3.71.
Variant HDPLYGKLFSTYLDPPHTSRGTSQ [R14D] has a protein stability index of 3.9.
With HDPLYGKLFSTYLHPPHTSRGTSQ [R14H] the protein stability index was 3.28.
HDPLYGKLFSTYLGPPHTSRGTSQ [R14G] gave a protein stability index of 3.73.
For HDPLYGKLFSTYLCPPHTSRGTSQ [R14C], the protein stability index was 2.78.
HDPLYGKLFSTYLAPPHTSRGTSQ [R14A] showed a protein stability index of 3.08.
Variant HDPLYGKLFSTYLLPPHTSRGTSQ [R14L] has a protein stability index of 2.32.
Variant HDPLYGKLFSTYLKPPHTSRGTSQ [R14K] has a protein stability index of 2.66.
HDPLYGWLFSTYLRPPHTSRGTSQ [K7W] showed a protein stability index of 1.96.
Work on HDPLYGVLFSTYLRPPHTSRGTSQ [K7V] yielded a protein stability index of 2.68.
In the case of HDPLYGHLFSTYLRPPHTSRGTSQ [K7H], the protein stability index is reported as 2.
With HDPLYGRLFSTYLRPPHTSRGTSQ [K7R] the protein stability index was 2.46.
In the case of HDPLYGTLFSTYLRPPHTSRGTSQ [K7T], the protein stability index is reported as 3.43.
For HDPLYGQLFSTYLRPPHTSRGTSQ [K7Q], the protein stability index was 3.12.
In the case of HDPLYGPLFSTYLRPPHTSRGTSQ [K7P], the protein stability index is reported as 2.36.
HDPLYGLLFSTYLRPPHTSRGTSQ [K7L] gave a protein stability index of 2.46.
In the case of HDPLYGYLFSTYLRPPHTSRGTSQ [K7Y], the protein stability index is reported as 1.78.
HDPLYGMLFSTYLRPPHTSRGTSQ [K7M] showed a protein stability index of 2.65.
HDPLYGSLFSTYLRPPHTSRGTSQ [K7S] showed a protein stability index of 2.58.
For HDPLYGILFSTYLRPPHTSRGTSQ [K7I], the protein stability index was 2.75.
HDPLYGNLFSTYLRPPHTSRGTSQ [K7N] showed a protein stability index of 3.36.
With HDPLYGKLFSTELRPPHTSRGTSQ [Y12E] the protein stability index was 4.3.
Variant HDPLYGKLFSTVLRPPHTSRGTSQ [Y12V] has a protein stability index of 2.92.
HDPLYGKLFSTRLRPPHTSRGTSQ [Y12R] showed a protein stability index of 3.76.
With HDPLYGKLFSTALRPPHTSRGTSQ [Y12A] the protein stability index was 3.74.
HDPLYGKLFSTFLRPPHTSRGTSQ [Y12F] gave a protein stability index of 2.8.
Work on HDPLYGKLFSTGLRPPHTSRGTSQ [Y12G] yielded a protein stability index of 3.36.
With HDPLYGKLFSTHLRPPHTSRGTSQ [Y12H] the protein stability index was 3.31.
Work on HDPLYGKLFSTKLRPPHTSRGTSQ [Y12K] yielded a protein stability index of 3.91.
In the case of HDPLYGKLFSTQLRPPHTSRGTSQ [Y12Q], the protein stability index is reported as 3.53.
Work on HDPLYGKLFSTILRPPHTSRGTSQ [Y12I] yielded a protein stability index of 3.11.
HDPLYGKLFSTTLRPPHTSRGTSQ [Y12T] showed a protein stability index of 3.95.
For HDPLYGKLFSTDLRPPHTSRGTSQ [Y12D], the protein stability index was 4.06.
Work on HDPLYGKLFSTPLRPPHTSRGTSQ [Y12P] yielded a protein stability index of 4.14.
Work on HDPLYGKLFSTWLRPPHTSRGTSQ [Y12W] yielded a protein stability index of 2.53.
In the case of HDPLYGKLFSTLLRPPHTSRGTSQ [Y12L], the protein stability index is reported as 2.85.
Variant HDPLYGKLFSTSLRPPHTSRGTSQ [Y12S] has a protein stability index of 3.97.
Work on HDPLYGKLFSTMLRPPHTSRGTSQ [Y12M] yielded a protein stability index of 2.76.
In the case of HDPLYGKLFSTNLRPPHTSRGTSQ [Y12N], the protein stability index is reported as 3.4.
HDPLYGKLFSTCLRPPHTSRGTSQ [Y12C] gave a protein stability index of 3.01.
HDPLYGKLFKTYLRPPHTSRGTSQ [S10K] showed a protein stability index of 3.46.
For HDPLYGKLFWTYLRPPHTSRGTSQ [S10W], the protein stability index was 2.44.
Variant HDPLYGKLFHTYLRPPHTSRGTSQ [S10H] has a protein stability index of 3.8.
With HDPLYGKLFATYLRPPHTSRGTSQ [S10A] the protein stability index was 2.96.
For HDPLYGKLFDTYLRPPHTSRGTSQ [S10D], the protein stability index was 4.06.
For HDPLYGKLFVTYLRPPHTSRGTSQ [S10V], the protein stability index was 2.64.
Variant HDPLYGKLFTTYLRPPHTSRGTSQ [S10T] has a protein stability index of 3.63.
In the case of HDPLYGKLFYTYLRPPHTSRGTSQ [S10Y], the protein stability index is reported as 1.67.
HDPLYGKLFPTYLRPPHTSRGTSQ [S10P] gave a protein stability index of 4.13.
Variant HDPLYGKLFRTYLRPPHTSRGTSQ [S10R] has a protein stability index of 3.02.
Variant HDPLYGKLFNTYLRPPHTSRGTSQ [S10N] has a protein stability index of 3.97.
Variant HDPLYGKLFLTYLRPPHTSRGTSQ [S10L] has a protein stability index of 2.96.
Work on HDPLYGKLFETYLRPPHTSRGTSQ [S10E] yielded a protein stability index of 4.21.
Variant HDPLYGKLFFTYLRPPHTSRGTSQ [S10F] has a protein stability index of 1.96.
With HDPLYGKLFGTYLRPPHTSRGTSQ [S10G] the protein stability index was 3.34.
HDPLYGKLFITYLRPPHTSRGTSQ [S10I] gave a protein stability index of 2.49.
In the case of HDPLYGKLFQTYLRPPHTSRGTSQ [S10Q], the protein stability index is reported as 3.78.
Work on HDPLYGKLFCTYLRPPHTSRGTSQ [S10C] yielded a protein stability index of 1.97.
For HDPLYGKLFMTYLRPPHTSRGTSQ [S10M], the protein stability index was 2.72.
For HDPLYGKLASTYLRPPHTSRGTSQ [F9A], the protein stability index was 4.32.
Work on HDPLYGKLISTYLRPPHTSRGTSQ [F9I] yielded a protein stability index of 3.82.
Variant HDPLYGKLESTYLRPPHTSRGTSQ [F9E] has a protein stability index of 4.54.
Variant HDPLYGKLMSTYLRPPHTSRGTSQ [F9M] has a protein stability index of 4.35.
In the case of HDPLYGKLRSTYLRPPHTSRGTSQ [F9R], the protein stability index is reported as 4.13.
